Assay results reported in US20240116985A1 (published 2024).
Starred links: 1 amine or outer side, 2 acyl side, 3 side chain; linkers in the order of their positions; H or OH if unused. Positions of bridges follow the written chain, without caps; N, C: chain ends. Non-standard residues stand in square brackets, D forms with d. Primed or numbered codes have the meaning given here. *: point of attachment. PyrS2″ = (S)-3-amino-1-((pent-4-en-1-yloxy)carbonyl)pyrrolidine-3-carboxylic acid (stapling residue), C=CCCCOC(=O)N1CC[C@@](N[*:1])(C(=O)[*:2])C1; B5(16) = 2-amino-2-(pent-4-en-1-yl)hept-6-enoic acid = 2,2-bis(4-pentenyl)glycine (stitching residue), C=CCCCC(CCCC=C)(N[*:1])C(=O)[*:2]; B5(4) = 2,2-bis(4-pentenyl)glycine = 2-amino-2-(pent-4-en-1-yl)hept-6-enoic acid (stitching residue), C=CCCCC(CCCC=C)(N[*:1])C(=O)[*:2]; Phe(2-Cl) = N[C@@H](Cc1ccccc1Cl)C(=O)O; Bta = N[C@@H](Cc1csc2ccccc12)C(=O)O; αAllylPro = C=CC[C@@]1(C(=O)O)CCCN1; tBuAla = CC(C)(C)C[C@H](N)C(=O)O; Cha = N[C@@H](CC1CCCCC1)C(=O)O; S8 = C=CCCCCCC[C@](C)(N)C(=O)O; Alaol = C[C@@H](CO)N*

T1: B-cat-Halo (beta-catenin HaloTag fusion expressed in HEK293 cells) (UniProt P35222 1-781)
T1 sequence (looked up): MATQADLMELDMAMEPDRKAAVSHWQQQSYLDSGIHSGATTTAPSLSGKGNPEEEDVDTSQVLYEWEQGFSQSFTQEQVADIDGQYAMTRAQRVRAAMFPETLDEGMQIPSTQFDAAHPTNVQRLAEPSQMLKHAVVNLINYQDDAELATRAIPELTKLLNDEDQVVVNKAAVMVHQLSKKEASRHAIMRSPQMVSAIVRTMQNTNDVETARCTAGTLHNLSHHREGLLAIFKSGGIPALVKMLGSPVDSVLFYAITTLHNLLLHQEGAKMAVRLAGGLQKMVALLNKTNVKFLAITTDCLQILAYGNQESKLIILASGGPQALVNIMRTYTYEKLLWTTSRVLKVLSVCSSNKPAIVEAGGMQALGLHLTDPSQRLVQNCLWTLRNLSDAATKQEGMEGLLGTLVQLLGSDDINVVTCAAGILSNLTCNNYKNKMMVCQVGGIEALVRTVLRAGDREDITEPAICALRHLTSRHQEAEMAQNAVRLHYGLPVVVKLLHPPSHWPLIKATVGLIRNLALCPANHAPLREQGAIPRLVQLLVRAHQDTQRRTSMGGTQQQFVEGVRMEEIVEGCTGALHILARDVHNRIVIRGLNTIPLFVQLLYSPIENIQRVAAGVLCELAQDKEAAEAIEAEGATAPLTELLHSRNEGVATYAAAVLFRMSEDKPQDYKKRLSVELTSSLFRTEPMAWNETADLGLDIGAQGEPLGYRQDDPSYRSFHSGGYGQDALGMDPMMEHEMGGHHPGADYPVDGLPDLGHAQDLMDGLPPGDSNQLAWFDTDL

T2: beta-catenin in DLD1 TCF/LEF luciferase reporter cells (Homo sapiens (Human), UniProt P35222 2-781)
T2 sequence: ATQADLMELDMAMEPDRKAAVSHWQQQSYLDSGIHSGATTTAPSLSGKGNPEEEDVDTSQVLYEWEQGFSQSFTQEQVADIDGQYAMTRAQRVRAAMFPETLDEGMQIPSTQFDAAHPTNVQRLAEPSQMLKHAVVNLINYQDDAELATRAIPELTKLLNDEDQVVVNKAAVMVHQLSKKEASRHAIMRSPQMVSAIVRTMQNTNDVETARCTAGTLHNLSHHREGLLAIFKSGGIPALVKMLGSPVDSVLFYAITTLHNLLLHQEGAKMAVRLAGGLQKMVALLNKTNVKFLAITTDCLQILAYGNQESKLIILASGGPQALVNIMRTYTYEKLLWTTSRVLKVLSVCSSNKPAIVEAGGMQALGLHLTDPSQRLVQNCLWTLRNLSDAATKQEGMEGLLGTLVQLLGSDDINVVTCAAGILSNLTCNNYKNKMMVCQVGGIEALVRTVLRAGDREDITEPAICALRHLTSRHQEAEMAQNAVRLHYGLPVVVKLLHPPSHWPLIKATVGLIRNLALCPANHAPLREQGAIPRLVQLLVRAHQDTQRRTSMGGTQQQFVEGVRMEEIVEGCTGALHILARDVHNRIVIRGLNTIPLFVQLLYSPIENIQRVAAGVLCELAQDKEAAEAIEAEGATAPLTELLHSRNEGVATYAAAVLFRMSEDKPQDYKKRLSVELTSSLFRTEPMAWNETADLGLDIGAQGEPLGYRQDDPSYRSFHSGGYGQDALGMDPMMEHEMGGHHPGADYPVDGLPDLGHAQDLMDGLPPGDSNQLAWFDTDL

T3: B-cat-Halo (beta-catenin HaloTag NanoBRET construct expressed in HEK293 cells) (Homo sapiens (Human), UniProt P35222 1-781)
T3 sequence: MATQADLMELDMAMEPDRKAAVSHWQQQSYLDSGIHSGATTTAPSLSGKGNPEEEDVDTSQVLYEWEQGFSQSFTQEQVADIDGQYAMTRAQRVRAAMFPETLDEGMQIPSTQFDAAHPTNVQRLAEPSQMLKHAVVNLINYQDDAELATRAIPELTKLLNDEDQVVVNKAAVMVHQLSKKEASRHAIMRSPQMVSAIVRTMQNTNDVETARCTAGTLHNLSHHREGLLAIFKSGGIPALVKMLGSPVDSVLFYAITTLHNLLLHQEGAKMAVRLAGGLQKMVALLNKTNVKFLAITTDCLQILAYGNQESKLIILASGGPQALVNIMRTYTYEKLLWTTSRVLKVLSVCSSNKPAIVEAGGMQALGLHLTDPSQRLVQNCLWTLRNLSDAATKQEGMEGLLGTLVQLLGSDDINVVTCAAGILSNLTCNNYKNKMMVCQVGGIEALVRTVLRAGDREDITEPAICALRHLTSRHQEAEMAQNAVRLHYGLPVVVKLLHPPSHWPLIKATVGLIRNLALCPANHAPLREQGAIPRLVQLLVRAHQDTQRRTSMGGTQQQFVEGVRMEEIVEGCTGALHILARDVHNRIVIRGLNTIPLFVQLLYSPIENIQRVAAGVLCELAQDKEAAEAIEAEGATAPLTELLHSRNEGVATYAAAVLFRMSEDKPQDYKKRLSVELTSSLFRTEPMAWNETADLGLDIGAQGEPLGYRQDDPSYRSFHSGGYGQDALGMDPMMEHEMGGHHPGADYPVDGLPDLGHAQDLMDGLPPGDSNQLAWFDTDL


Assays:
Test in all cases: cell-based or functional assay
[1] = target: T1, B-cat-Halo (beta-catenin HaloTag fusion …)
[2] = target: T2, beta-catenin in DLD1 TCF/LEF luciferase …
[3] = target: T3, B-cat-Halo (beta-catenin HaloTag …)

| NanoBRET Abs IC50 [1] [µM] | DLD1 4% Abs IC50 [2] [µM] | NanoBRET Abs IC50 [3] [µM] | Binder |
| --- | --- | --- | --- |
| 12 | – | – | Ac-[αAllylPro]D[Cha][B5(16)]DEAAFN[S8]F[Bta]Q-NH2 (staple 1-4, 4-11; also: later-eluting staple isomer composition) [I-620] |
| – | 16.2 | 24.3 | Ac-[αAllylPro]D[tBuAla][B5(4)]DDAAFT[PyrS2″][Phe(2-Cl)][Bta]-Alaol (staple 1-4, 4-11; also: C-terminal Alao1 group, meaning not given here) [I-1246] |
